Assay [1] addresses full-length HIV-1 gp120 from the clade B YU2 strain (HIV-1 (clade B, strain YU2)) (UniProt P35961). Briefly: SPR.
For assay [2], the target named is CD4-mimetic miniprotein M48U1. Briefly: SPR. A general note: Surface plasmon resonance follows binding to a sensor surface in real time, without labels.

By Kd is commonly meant the constant that tells how readily two partners part at equilibrium. The low end stands for a tighter complex, the high end for a looser complex. “CD4-mimetic miniprotein M48U1 (designed binder)” returned a Kd in assay [1] of 15.4 pM.

With “full-length HIV-1 gp120 from the clade B YU2 strain (from UniProt P35961 32-498) (natural protein)”, the Kd in assay [2] stood at 14 pM. That is a picomolar value.

As usually defined, the koff is the first-order rate constant of dissociation. For orientation: kon means the second-order rate constant of association. A lower kon goes with slower complex formation. For “CD4-mimetic miniprotein M48U7 (designed binder)”, in assay [1], the Kd amounted to 180 pM, the koff worked out at 0.000446 s⁻¹ and the association rate constant (kon) came out at 2.42e+06 M⁻¹ s⁻¹.

The values above are taken from PMC4140785.
